Values quoted from earlier work, collected in PMC4283463 (Journal of pharmaceutical sciences, 2014).

Substance: human growth hormone [hGH]
- decrease in stability on carbamidomethylation of all four Cys residues: ~ 37.7 kJ/mol
